The test system of the data set is MS2 coat protein. Briefly: apparent KD of MS2 coat protein; designed switch direction (-1 OFF switch, 1 ON switch): -1; higher = weaker reporter binding. The method in brief:
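Designed RNA switches with common flanks were transcribed on Illumina chips by stalled E. coli RNA polymerase and titrated with SNAP-549-labelled MS2 coat protein, from 0.7 or 1.5 nM doubling to 3 µM, in Tris-HCl pH 7.5 buffer with KCl, MgCl2, BSA, DTT, tRNA and Tween-20. Steps lasted 0.8–1.5 h (lowest) to 10–20 min (highest). Titrations ran without input, with 200 uM small-molecule ligand, or with an oligonucleotide input. Normalised cluster fluorescence was curve-fitted, and apparent KD is the per-design median over clusters.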

Where [1] appears, read: Eterna round: R95, input ligand: microRNA oligo, concentration not stated.
The mark [2] stands for this setting: input ligand: microRNA oligo, concentration not stated.
Where [3] appears, read: Eterna round: R95, input ligand: FMN 200 uM.
Setting [4] is: Eterna round: R95, input ligand: none.

For the sequence “GGCAAACAUGAGGAUCACCCAUGUAAGGAUAUUAGGCGAUCGUCGAAAGACGAUAGCCUGAGAAGGUGCAUGCC [Eli x1 4.15] (Eterna round: R97, puzzle: Exclusion 1)”, the “apparent KD of MS2 coat protein” value reads like this: (input ligand: FMN 200 uM) 38.8 nM; (input ligand: none) 22.4 nM.
Turning to “GGCAAUAUGUAGGAUAUCGUAUCGGAAACGAUACGAGAAGGGCAAACAUGAGGAUCACCCAUGUUCCUUAAGCC [Fiskers Ex 6 - 10] (puzzle: Exclusion 6)”, under setting [1], the “apparent KD of MS2 coat protein” value is 13.5 nM.
Same read-out and setting: the same measure for “GGCAUAAACGAGGAUAUCGAUACGGAAACGUAUCGAGAAGGUGUAACAUGAGGAUCACCCAUGUUCCUCAAGCC [Mat - Exclusion 6 - Eli Mod - D60] (puzzle: Exclusion 6)”: 29.1 nM.
As for “GGCAUAAACGAGGAUAUCGUUACGGAAACGUAACGAGAAGGUGUAACAUGAGGAUCACCCAUGUUCCUCAAGCC [Mat - Exclusion 6 - Eli Mod - D59] (Eterna round: R96, puzzle: Exclusion 6)”, the “apparent KD of MS2 coat protein” value (input ligand: FMN 200 uM) is 36.8 nM, the “apparent KD of MS2 coat protein” value under setting [2] was 29.8 nM and the “apparent KD of MS2 coat protein” value (input ligand: none) turned out to be 38 nM.
For the sequence “GGCAUAAACGAGGAUAUCGUUACGGAAACGUAACGAGAAGGUGUAACAUGAGGAUCACCCAUGUUCCUCAAGCC [Mat - Exclusion 6 - Eli Mod - D59] (puzzle: Exclusion 6)”, under setting [1], the “apparent KD of MS2 coat protein” value amounted to 28.9 nM.
On to “GGCAUCGGAGGAUAUAUUUAUGGUGAUACCGGAAGCUUUCUACUUGAGGAUCACCCAAGUAGAAGGCCGAUGCC [jl-ex2.4.85 ViennaUCT mod] (Eterna round: R97, puzzle: Exclusion 2)”, for which the “apparent KD of MS2 coat protein” value runs as follows: (input ligand: FMN 200 uM) 39.5 nM; (input ligand: none) 13.7 nM.
The matching figures for “GGCAUGUGAGGAUAUGCGAAGGGAAGGAGAGGGAAAGAGAAGCAGAAGGCACAUGAGGAUCACCCAUGUAAGGG [AK-MS2ROC-r4-exclusion4-8] (Eterna round: R97, puzzle: Exclusion 4)”: 34.1 nM and 203 nM.
With “GGCCCUAAGGUCAGAUCCACAAGCUUUUUGCUCGUUUUAACAUGAGGAUCACCCAUGUCUAGUGGAUUUGAUCCUCA [Sensor v3, turn-off variant 2 (MOD of Indiso v.5)] (puzzle: Sensor v3, turn-off variant 2)”, the “apparent KD of MS2 coat protein” value under setting [3] was determined as 36.2 nM, the “apparent KD of MS2 coat protein” value under setting [1] worked out at 14.5 nM and the “apparent KD of MS2 coat protein” value under setting [4] stood at 41.3 nM.
The matching figures for “GGCCCUAAGGUCAGAUUCACAAGCUUUUUGCUCGUUUUAACAUGAGGAUCACCCAUGUCUAGUGGAUCUGAUCCUCA [Sensor v3, turn-off variant 2 (MOD of Indiso v.2)] (puzzle: Sensor v3, turn-off variant 2)”: 21.6 nM, 11.8 nM and 20.1 nM.
For “GGCCCUAGGGUCAGACGCACAAGCUUUUUGCUCGUUUUAACAUGAGGAUCACCCAUGUCUAGUGGAUCUGAUCGGGU [Mausinonra] (Eterna round: R96, puzzle: Sensor v3, turn-off variant 2)”, the “apparent KD of MS2 coat protein” value reads like this: (input ligand: FMN 200 uM) 19.6 nM; under setting [2], 96.8 nM; (input ligand: none) 25.8 nM.
For “GGCCCUAGGGUCAGACGCACAAGCUUUUUGCUCGUUUUAACAUGAGGAUCACCCAUGUCUAGUGGAUCUGAUCGGGU [Mausinonra] (puzzle: Sensor v3, turn-off variant 2)”, the “apparent KD of MS2 coat protein” value under setting [3] came to 20.6 nM, the “apparent KD of MS2 coat protein” value under setting [1] amounted to 111 nM and the “apparent KD of MS2 coat protein” value under setting [4] stood at 18.5 nM.
The matching figures for “GGCCGAGAACAGCUCCGCGCUGCCCUCAGCCGCUCAUUUACAUGAGGAUCACCCAUGUUUUUUGCUUGUCUUGUUUC [Antibe] (puzzle: Sensor v3, turn-off variant 2)”: 20.3 nM, 104 nM and 22.3 nM.
“GGCGAAGUAGGAUAUACAUGAGGAUCACCCAUGUAACCUAUAGGCGAAGAUCUUCUAUGUAGAAGGACUACGCU [jl-ex3-4.40 ViennaUCT mod] (Eterna round: R97, puzzle: Exclusion 3)”: the “apparent KD of MS2 coat protein” value amounted to 15.3 nM (input ligand: FMN 200 uM) and 15.3 nM (input ligand: none).
For “GGCGCACAUGAGGAUCACCCAUGUGAGGAUAUUAGGCGAUCGUCGAUAGACGAUAGCCUGAGAAGGCACAUGCC [Mat - Exclusion 1 - Eli Mod - D18] (Eterna round: R97, puzzle: Exclusion 1)”, the “apparent KD of MS2 coat protein” value runs as follows: (input ligand: FMN 200 uM) 188 nM; (input ligand: none) 29.3 nM.
The matching figures for “GGCGCCUGAGGAUAUCAGUCUGGAUCAGAAUAGAUCCUGACUGAGAAGGCACAUGAGGAUCACCCAUGUUCGCC [Eli 4x 4.28] (Eterna round: R97, puzzle: Exclusion 4)”: 16.4 nM and 14.8 nM.
Regarding “GGCUGACAUGUAGGAUAUCUGCACGAUUAGUGCAGAGAAGGACAUGAGGAUCACCCAUGUAUAGCGACUUCGGUCGCAACAGCC [ENG1/2-A1] (Eterna round: R96, puzzle: Exclusion NG 1)”, the “apparent KD of MS2 coat protein” value by setting is: (input ligand: FMN 200 uM) 155 nM; under setting [2], 31 nM; (input ligand: none) 40 nM.
The matching figures for “GGCUGACAUGUAGGAUAUCUGCACGUUUAGUGCAGAGAAGGACAUGAGGAUCACCCAUGUAUAGCGACUUCGGUCGCAACAGCC [ENG1/2-A2] (Eterna round: R96, puzzle: Exclusion NG 1)”: 115 nM, 31.6 nM and 48.3 nM.
Take “GGGAAACAUGAGGAUCACCCAUGUAAUGAGCAUGGAAUCCCAGAGGAUAUCGCAUGUAUGAAUGUCGAGAAGGCUGACGUUAAA [Eternabot solution 6] (Eterna round: R96, puzzle: Exclusion NG 3)”: the “apparent KD of MS2 coat protein” value by setting is: (input ligand: FMN 200 uM) 1030 nM; under setting [2], 198 nM; (input ligand: none) 207 nM.
With “GGGAAACAUGAGGAUCACCCAUGUCAGGAUAUGAUACUAUGUACUUCGGUACAUAGUAUCAGAAGGGACAUCAU [Ex1-3: 13] (puzzle: Exclusion 1)”, under setting [1], the “apparent KD of MS2 coat protein” value came out at 79.2 nM.
For “GGGAAGAACCAACAAGCAAACAUGAGGAUCACCCAUGUUAGUGGUUCGAAUGUAAAGAUUAAGAGAGCUCGUCUUAU [AK-miRNA-r3-9] (Eterna round: R97, puzzle: Sensor, turn-off variant 1)”, the “apparent KD of MS2 coat protein” value is, setting by setting: (input ligand: FMN 200 uM) 18 nM; (input ligand: none) 20.2 nM.
The matching figures for “GGGAAGAACCAACAAGUAGACAUGAGGAUCACCCAUGUAGACUUCAUGUAGGAAAGGAAAGGAAGAGCUCGUCUUAU [AK-miRNA-r3-12] (Eterna round: R97, puzzle: Sensor, turn-off variant 1)”: 21.6 nM and 28.5 nM.
“GGGAUGUCAGGAUAUCCGAAUAAUAACAACAAUAACAGAAAGGAGAAGGGACAUGAGGAUCACCCAUGUAAAAG [Bemadiin] (puzzle: Exclusion 4)”: the “apparent KD of MS2 coat protein” value was 39.9 nM under setting [3], 37.5 nM under setting [1] and 40 nM under setting [4].
Take “GGGCCCGGAGGAUAUACAUGAGGAUCACCCAUGUAGCGCGCGCGUAUUUGUGUGUGUUGUAGAAGGCCGGGCCC [-36.6, -33.8 kcal, A 19%, 6-0] (Eterna round: R97, puzzle: Exclusion 3)”: the “apparent KD of MS2 coat protein” value is, setting by setting: (input ligand: FMN 200 uM) 57.9 nM; (input ligand: none) 17.9 nM.
The matching figures for “GGGCCCGGUGUGAGGAUAUCGGGCCCGAAAGGGUUUGAGAAGGCACAUGAGGAUCACCCAUGUAAGCCGGGCCC [-41.1, -39 kcal, A 23%, 5b-0] (Eterna round: R97, puzzle: Brourd's mod of Exclusion 4)”: 17.1 nM and 15.3 nM.
On to “GGGCCCGGUGUGAGGAUAUCGGGCUCGAAAGGGCUCGAGAAGGCACAUGAGGAUCACCCAUGUAAGCCGGGCCC [-42.6, -40.5 kcal, A 23%, 4-0] (Eterna round: R97, puzzle: Brourd's mod of Exclusion 4)”, for which the “apparent KD of MS2 coat protein” value runs as follows: (input ligand: FMN 200 uM) 15.2 nM; (input ligand: none) 18.6 nM.
With “GGGCGUAGGCAGGAUAUGUAAGGCUGUUGGUCUAUAGAAGGGUUUACAUGAGGAUCACCCAUGUGACCGAACCG [Eternabot (L2) Solution 16] (Eterna round: R97, puzzle: Exclusion 6)”, the “apparent KD of MS2 coat protein” value runs as follows: (input ligand: FMN 200 uM) 18.2 nM; (input ligand: none) 16.4 nM.
The matching figures for “GGGCUCGGUGUGAGGAUAUCGGGCCCGAAAGGGCCCGAGAAGGCACAUGAGGAUCACCCAUGUAAGUCGGGCUC [-38.1, -37 kcal, A 23%, 0-4] (Eterna round: R97, puzzle: Brourd's mod of Exclusion 4)”: 13.6 nM and 14.1 nM.
The matching figures for “GGGUAGUUAGGAUAUCAGACUAGCUGCUCAACAGCAGCAGCUGAGAAGGGACUUGAGGAUCACCCAAGUGGAAG [Ceisis] (Eterna round: R97, puzzle: Exclusion 4)”: 64.9 nM and 70.1 nM.
The matching figures for “GGGUGCAGGCUGAGGUCCUACAUGAGGAUCACCCAUGUGGUCCGGUGACGUGAGUCACCGGACUUGGCUCGUCUUGU [salish99_S_TOV1_R5_010] (Eterna round: R97, puzzle: Sensor, turn-off variant 1)”: 41.5 nM and 50.5 nM.
Consider “GGGUUGGUAGGAUAUACAUGAGGAUCACCCAUGUCAUGUCGUCGGGAAAGAUCUUUCCGUAGAAGGGCCACCCG [Eternabot (L2) Solution 52] (Eterna round: R97, puzzle: Exclusion 3)”, for which the “apparent KD of MS2 coat protein” value is, setting by setting: (input ligand: FMN 200 uM) 97 nM; (input ligand: none) 28 nM.

The record behind these values is the supplement of paper PMC9170038.
